# Test results reported in patent US20180171024A1.
# Experiments:
# [1] = target: HLA-A2 on cells (tumor cell lines, normal primary cells, PBMCs) (human); experiment: flow cytometry, SKMEL5 cells
# [2] = target: HLA-A2 on cells (tumor cell lines, normal primary cells, PBMCs) (human); experiment: flow cytometry, colonic smooth muscle cells 2940, 10 µg/ml
# [3] = target: HLA-A2 on cells (tumor cell lines, normal primary cells, PBMCs) (human); experiment: flow cytometry, A498 cells, 10 µg/ml
# [4] = target: HLA-A2/PAP 112-120 complex on T2 cells (human); experiment: flow cytometry, T2 cells loaded with PAP112 [..], 10 µg/ml
# P68 … (Homo sapiens) = experiment: flow cytometry, T2 cells loaded with 10^-4 M peptide
# [5] = target: HLA-A2/Tyrosinase369-377 complex on cells (human); experiment: as above
# [6] = target: HLA-A2 on cells (tumor cell lines, normal primary cells, PBMCs) (human); experiment: flow cytometry, WM-115 melanoma cells, 10 µg/ml
# [7] = target: HLA-A2/TyrD-S20 on T2 cells (human); experiment: flow cytometry, T2 cells loaded with TyrD-S20 [..], 10 µg/ml
# [8] = target: HLA-A2 on cells (tumor cell lines, normal primary cells, PBMCs) (human); experiment: flow cytometry, 624.38 melanoma cells, 10 µg/ml
# [9] = target: HLA-A2/MART1(26) on T2 cells (human); experiment: flow cytometry, T2 cells loaded with MART1 peptide
# [10] = target: HLA-A2/TyrD-S20 on T2 cells (human); experiment: flow cytometry, peptide-loaded T2 cells (10^-5 M), PE anti-mouse IgG
# [11] = target: HLA-A2/TyrD-S22 on T2 cells (human); experiment: as above
# [12] = target: HLA-A2/TyrD-S23 on T2 cells (human); experiment: as above
# [13] = target: HLA-A2/TyrD-S21 on T2 cells (human); experiment: as above
# [14] = target: HLA-A2 on cells (tumor cell lines, normal primary cells, PBMCs) (human); experiment: flow cytometry, PBMCs #IB, 10 µg/ml
# [15] = target: HLA-A2 on cells (tumor cell lines, normal primary cells, PBMCs) (human); experiment: flow cytometry, 501A melanoma cells, 10 µg/ml
# [16] = target: HLA-A2 on cells (tumor cell lines, normal primary cells, PBMCs) (human); experiment: flow cytometry, SK-Mel5 melanoma cells
# [17] = target: HLA-A2 on cells (tumor cell lines, normal primary cells, PBMCs) (human); experiment: flow cytometry, ST486 cells, 10 µg/ml
# [18] = target: Unloaded T2 (Homo sapiens); experiment: flow cytometry, unloaded T2 cells
# [19] = target: HLA-A2 on cells (tumor cell lines, normal primary cells, PBMCs) (human); experiment: flow cytometry, KYSE-140 cells, 10 µg/ml
# [20] = target: HLA-A2 on cells (tumor cell lines, normal primary cells, PBMCs) (human); experiment: flow cytometry, H1703 cells, 10 µg/ml
# [21] = target: HLA-A2/WT1 126-134 complex on T2 cells (human); experiment: flow cytometry, T2 cells loaded with WT1 peptide 1x10e-4M
# [22] = target: HLA-A2 on cells (tumor cell lines, normal primary cells, PBMCs) (human); experiment: flow cytometry, SW620 cells
# [23] = target: HLA-A2/Tyrosinase369-377 complex on cells (human); experiment: flow cytometry, T2 cells loaded with TyrD [..], 10 µg/ml
# [24] = target: HLA-A2 on cells (tumor cell lines, normal primary cells, PBMCs) (human); experiment: flow cytometry, renal epithelial cells 4100-2, 10 µg/ml
# [25] = target: HLA-A2/209M on T2 cells (human); experiment: flow cytometry, T2 cells loaded with 209M peptide
# [26] = target: HLA-A2/Tyrosinase369-377 complex on cells (human); experiment: flow cytometry, T2 cells loaded with TyrD peptide ([..] printed under the label), 10 µg/ml
# [27] = target: HLA-A2 on other WT1 negative HLA-A2+ cells (other than 501, A498 and SKMEL; members not named); experiment: flow cytometry on IM-9 cells (WT1 mRNA -)
# [28] = target: HLA-A2 on cells (tumor cell lines, normal primary cells, PBMCs) (human); experiment: flow cytometry, 501A cells
# [29] = target: HLA-A2/TyrD-S19 on T2 cells (human); experiment: flow cytometry, T2 cells loaded with TyrD-S19 [..], 10 µg/ml
# [30] = target: HLA-A2/TyrN on T2 cells (human); experiment: flow cytometry, T2 cells loaded with TyrN [..], 10 µg/ml
# [31] = target: HLA-A2 on cells (tumor cell lines, normal primary cells, PBMCs) (human); experiment: flow cytometry, 501A melanoma cells, 10 µg/ml; remark: listed apart in the source
# [32] = target: HLA-A2/TyrD-S10 on T2 cells (human); experiment: flow cytometry, T2 cells loaded with TyrD S10 [..], 10 µg/ml
# [33] = target: HLA-A2/P68 on T2 cells (human); experiment: flow cytometry, T2 cells loaded with P68 [..], 10 µg/ml
# [34] = target: HLA-A2 on cells (tumor cell lines, normal primary cells, PBMCs) (human); experiment: flow cytometry, astrocytes 1800, 10 µg/ml
# [35] = target: HLA-A2/KPNA1 on T2 cells (human); experiment: flow cytometry, T2 cells loaded with KPNA1 [..], 10 µg/ml
# [36] = target: HLA-A2 on cells (tumor cell lines, normal primary cells, PBMCs) (human); experiment: flow cytometry, 'Umbryonic cells' #HUE-1, 10 µg/ml
# [37] = target: HLA-A2 on cells (tumor cell lines, normal primary cells, PBMCs) (human); experiment: flow cytometry, H2228 cells, 10 µg/ml
# [38] = target: HLA-A2 on unloaded T2 cells (human); experiment: flow cytometry, unloaded T2 cells, 10 µg/ml
# [39] = target: HLA-A2/GPLD1 on T2 cells (human); experiment: flow cytometry, T2 cells loaded with GPLD1 [..], 10 µg/ml
substance,measurement,setting,value
BB7.2 (antibody),GeoMean,[1],281
same,MFI,[2],563
same,MFI,[3],170
same,MFI relative to background,[4],1170
same,MFI,P68 … (Homo sapiens),542
same,MFI,[5],471
same,MFI,[6],215
same,MFI relative to background,[7],445
same,MFI,[8],311
same,MFI,[9],2500
same,MFI relative to background,[10],445
same,MFI relative to background,[11],464
same,MFI relative to background,[12],443
same,MFI relative to background,[13],654
same,MFI,[14],552
same,MFI,[15],760
same,MFI,[16],76
same,MFI,[17],681
same,MFI,[18],290
same,MFI,[19],36.1
same,MFI,[20],351
same,MFI,[21],722
same,GeoMean,[22],369
same,MFI relative to background,[23],430
same,MFI,[24],564
same,MFI,[25],2870
same,MFI relative to background,[26],848
same,MFI,[27],727
same,GeoMean,[28],1290
same,MFI relative to background,[29],555
same,MFI relative to background,[30],483
same,MFI,[31],243
same,MFI relative to background,[32],620
same,MFI relative to background,[33],1220
same,MFI,[34],590
same,MFI relative to background,[35],729
same,MFI,[36],553
same,MFI,[37],210
same,MFI relative to background,[38],417
same,MFI relative to background,[39],364
